The test has as its target GST-FLAG-Pol12 of Candida glabrata (Candida glabrata). In words: pull-down.

Take “His6-SUMO-Stn1 of Candida glabrata (natural protein)”: the stoichiometry N amounted to 1.

As usually defined, the stoichiometry N is the number of molecules, sites or subunits per partner or assembly.

For the origin of these results see PMC4269169.
